Target: SARS-CoV-2 spike protein receptor-binding domain (RBD) (SARS-CoV-2, UniProt P0DTC2 319-541)
Experiment: SPR

B1: #41 (antibody, V domains shown)
VH: QVQLVQSGAEVKKPGASVKVSCKVSGYTSPATIHWVRQAPGKGLEWMGGISPYKGDTIYAQKFQGRVTMTEDTSTDTAYMELSSLKSEDTAVYYCAKDSYYYDSSGSGLGGGFDYWGQGTLVTVSS
VL: DIQMTQSPSSVSASVGDRVTITCRASRDISSYLAWYQQKPGKAPKLLIYGASTRASGVPSRFSGSGSGTDFTLTISSLQPEDFANYYCLQYSIYPWTFGGGTKVEIK
Kd: 0.295 nM
